The values below come from the nanobody polyreactivity screen of Harvey et al. (2022).

A short description of this series: yeast display, Sf9 membrane polyspecificity reagent, FACS + sequencing; frameworks hold sequencing errors. The method in brief: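 Synthetic nanobody libraries on Saccharomyces cerevisiae BJ5465 were galactose-induced for 36–48 hours, stained 1 hour at 4 °C with 10% biotinylated, detergent-solubilized Sf9 membrane reagent and enriched on streptavidin microbeads. FACS then separated cells into low and high (top ~1%) gates by anti-HA (expression) and streptavidin (reagent binding) fluorescence. Genes were colony-PCR amplified, MiSeq 2 × 250 sequenced and CDR-length filtered. A clone's polyreactivity label is that of its gate of origin.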
For the sequence “QVQLVESGGGLVQAGGSHRLSCAASGSTFFSYAMGWYRQAPGKERELVAAITSNGGTTHYADSVKGRFTISRDNAKNTVYLQMNSLKPEDTAVYYCAKAQGHVRGSRGLQGGRYDYWGQGTQVTVSS”, the “polyreactivity (PSR sort gate)” value is reported as “low polyreactivity”.
“QVQLVESGGGLVQAGGSHRLSCAASGSTFVVYSLGWYRQAPGKERELVAAITSSGGRTYYADSVKGRFTISRDNAKNTVYLQMNSLKPDDTAVYYGNAVYSRQSSNKGEYWGQGTQVTVSW”: the “polyreactivity (PSR sort gate)” value is given as “high polyreactivity”.
On to “QVQLVESGGGLVQAGGSHRLSCAASGTFKAYAMGWYRQAPGKERELVAVISNGGSTYYADSVKGRFTISRDNAKNTVYLQMNSLKPEDTAVYYCAARRGWYAYRFLSGSRLHYYWGQGTQVTVSS”, for which the “polyreactivity (PSR sort gate)” value was “high polyreactivity”.
As to “QVQLVESGGGLVQAGGSHRLSCAASRRIFGYNAMGWYRKAPGKERELVAAIRYSGGRTYYADSVKGRFTISRDNAKNTVYLQMNSLKPEDTAVYYCAATAFDKLKVWYYYWGQGTQVTVSS”, the “polyreactivity (PSR sort gate)” value was “high polyreactivity”.
The same measure for “QVQLVESGGGLVQAGGSHRLSCAAYGYTIPFYTMGWYRQAPGKERDLVAAINSGGSTYYADSVKGRFTISRDNAKNTVYLQMNTLKPEDTAVYYCAVEGGFRVRYQAQYRYYYWGQGTQVIVSS”: “high polyreactivity”; for “QVQLVESGGGLVQAGGSHRLSCASSGIIFAWYVMGWSRQAPGKDSELVAAITQSGGSTFYADSVKGRFTISRDNAKNTVYLQMNSLKPEDTEVYYCNTEDFFNVPEMDSWGQGTQVTVSS”: “low polyreactivity”.
Take “QVQLVESGGGLVQAGGSHRLSCSGSGFSLTLNAMGWYRQAPGKERELVAAISGNGGRTYYADSVKGRFTISRDNAKNTVYLQMNSLKPEDTAVYYCAARYTRTPSDCSTRKFGYGYWGQRTQVTVSS”: the “polyreactivity (PSR sort gate)” value is “high polyreactivity”.
In the case of “QVQLVESGGGLVQAGGSILLICSASGGNFYVYSMGWYRQAPGKERELVAAIRYSGGSTCYADSVKGRFTISRDNAKNTVYLLMNSLKTEYTAVYYCATVGWPFYPARDYDYSGQGTQVTVSS”, the “polyreactivity (PSR sort gate)” value is on record as “low polyreactivity”.
The same measure for “QVQLVESGGGLVQAGGSILLSCAASGSIYGTNTMGWYRQAPGKEREFVAVITGSTTSTYYADSVKGLFTISRDNAKNTVYLQMNSLKPEDTAVYYCATDYWWDLFEYDYWGQGTQVTVSS”: “high polyreactivity”.
For the sequence “QVQLVESGGGLVQAGGSIRISCAPSGRTFNYYAIGWNRPAPAQEREFVAAITKSCGSTYYADSVKGRFTISRDNAKYTVYLQMNSVKPEDTAVYYCATTHRYRVVYWRQGTQVTVSS”, the “polyreactivity (PSR sort gate)” value is given as “high polyreactivity”.
The same measure for “QVQLVESGGGLVQAGGSIRISCEASGITFGRNPMGCDRQAPGKERELVDAIDSGGNTYADSVKGRFTISRDNAKNTFYLQMNRLIPEDTAVYYCAVDGGEFSSYGYWGQGTQVTVSS”: “low polyreactivity”; for “QVQLVESGGGLVQAGGSIRLICAASGFIISWYAMGWYRQAPGKERELFAAISSGGSTTYADSVKGRFTISRDNAKNTVYLQMNSLKPEDTAVYYCNADQVYGYNYWGQGTQVTVSS”: “high polyreactivity”.
As for “QVQLVESGGGLVQAGGSIRLICAASGRNYAVYAMGWYRQAPGKERELVAAITYGGGRTYYADSVKGRFTISRDNEKNTVYLKLNSMNPEDTAVYFCAADYFGTDYDYWGQGTHVTVSS”, the “polyreactivity (PSR sort gate)” value is reported as “low polyreactivity”.
With “QVQLVESGGGLVQAGGSIRLICAASGRTFSRYAMGWYRQAPGKERELVAAITFRFGRTYYADSVKGRFTISRDNAKNTVYLQMNSMKPEDTSVYYCAAETKYSGAYPYDYWGQGTQVPVSS”, the “polyreactivity (PSR sort gate)” value was “high polyreactivity”.
The same measure for “QVQLVESGGGLVQAGGSIRLSCAASGFTFTRYTMGWYRQAPGKERELVARITRSGGSTYYADSVKGRFTISRDNAKNTVYLQMNSLKPEDTAVYDCAAGYVVATRYDYWGQGTQVTLSS”: “high polyreactivity”.
Take “QVQLVESGGGLVQAGGSIRLSCAASGRIFRYYHMGWYRQAPGKERELVARISSTGRTYADSVKGRFTISRDNAKNSVYLQMYSLKPEDTAVYFCAALFHTRGHSKYDYWGQGTQVTVSS”: the “polyreactivity (PSR sort gate)” value is on record as “high polyreactivity”.
Turning to “QVQLVESGGGLVQAGGSIRLSCAASGRISAPNAMGWYRQAAVKERELVAAISSGGRTNYADSVKGRFTISRDNEKNTVYLQMNSLKPEDTAVYYCAAYYYNDRMYYWGQGNQVTVSS”, the “polyreactivity (PSR sort gate)” value was “high polyreactivity”.
To “QVQLVESGGGLVQAGGSIRLSCAASGRTAKRYAMGWYRQAPGKERELVAAISRGGGSTYYADSVKGRFTISRDNAKNTVYLQMNSLKPEDTAVYYCAADLNSYTRYDYWGQGTQVTVSS” belongs “high polyreactivity”; to “QVQLVESGGGLVQAGGSIRLSCAASGRTFGDYAMGWYRQAPGKERELVAAISSSGGRTYYADSVKGRFTISRDNAKNTVYLQMNSLKPEDTAVYYCAAQSKYYQYYSWGQGTQVTVSS”, “high polyreactivity”.
On to “QVQLVESGGGLVQAGGSIRLSCAASGRTFVPYVMGWYIQAPGKERELVATINWSGGSTYYADSVKGRFSISRDNAKNTVYLQMNSLKPEDTADYYCDARYYSDWFYYLFRYDYWGQGTQVTVSS”, for which the “polyreactivity (PSR sort gate)” value is recorded as “low polyreactivity”.
To “QVQLVESGGGLVQAGGSIRLSCAASGSIFSWYAMGWYSQAPGKERELVAAITSDGGTNYADSVKGRFTISRDNAMNTVYLQMNTLKPEDTAVYYCAADYWYSWRRSHYAHRYGYWGQGTQVTVSS” belongs “low polyreactivity”; to “QVQLVESGGGLVQAGGSIRLSCAASGSIVVSYAMGWYRQAPGKERELVAAITVSGGSTYYADSVKGRFTISRDNAKNTVYLQMNSLKPEDTAVYYCAADSWDDWVVEFYYWGQGTQVNVSS”, “low polyreactivity”.
With “QVQLVESGGGLVQAGGSIRLSCAASGSTFANYAMGWYRQAPGKERELVAAISWSGSYTYYADSVKGSFTISRDNAKNTVYLQMNSLKPEDTAVYYCAADYDTPTWEYYYWGQGTQVTVSS”, the “polyreactivity (PSR sort gate)” value is “low polyreactivity”.
Regarding “QVQLVESGGGLVQAGGSIRLSCAASGSTFWPYAMGWYRQAPGKERELVAAITTSGGITYYADSVKGRFTISRDKAKITVYLQMNSVKPEDTAVYYCAADLSYHGYGYWGQGTQVTVSS”, the “polyreactivity (PSR sort gate)” value is listed as “low polyreactivity”.
In the case of “QVQLVESGGGLVQAGGSIRLSCAASGSTFYIYAMGWYRQAPGQERELVATISWSGGSTYYADSVKGRFTISRDNAKNTVYLQMNSLKPEDTAVYYCAVRPGFGRSLWYGYWGQGTQVTVSS”, the “polyreactivity (PSR sort gate)” value was “high polyreactivity”.
For the sequence “QVQLVESGGGLVQAGGSIRLSCAASGSTLQGNAMGWYRQAPGKERELDAAISRSGGSTYADSVKGRFTISRDNAKNTVYLLMNSLKPEDTAVYYCAAYSGVGYLWFVYWGQGTQVTVSS”, the “polyreactivity (PSR sort gate)” value is on record as “low polyreactivity”.
“QVQLVESGGGLVQAGGSIRLSCAASRFTFGPYAMGWYRQAHVKERELVAAITIRGGSPYADSVKGRFTISRDNAKNTVYLQMNSLKPEDTAVYYCATVRALEYNYWGQGTQVTVSS”: the “polyreactivity (PSR sort gate)” value was “low polyreactivity”.
On to “QVQLVESGGGLVQAGGSIRLSCAASVSTFFVYTMGWYRQATGKGMELVAAISGSGGSTAYADSVKGRFTISRDNAKNTVYLQLNSLKPEDTAVYYCAARRHVYLRGSTFEFNYWGQGTQVTVSS”, for which the “polyreactivity (PSR sort gate)” value is “high polyreactivity”.
Turning to “QVQLVESGGGLVQAGGSIRLTCAASGRIFYGNAMGCYRQAPGKERELVAAISSGTSTNYADSVKGRFTISRDNAKTTVYLQMNSLKPEDTAVYYCAAGSYSRYLYSLYFDFDYWGQGTQVTVSS”, the “polyreactivity (PSR sort gate)” value is “low polyreactivity”.
Take “QVQLVESGGGLVQAGGSIRLTCAASGSIFYHYAMGWYRQAPAKERELVADITQSGGTTDYADSVKGRFTISRDNAKNTVYLQMNSLKTEDTAVYYCAADGDTTSPTYYIFWYGEFDYCGQGTQVTVSS”: the “polyreactivity (PSR sort gate)” value is “low polyreactivity”.
Regarding “QVQLVESGGGLVQAGGSIRLTSAASGRTFVTHPMGWYRQAPGKDRELVAAISRSGSSTYYADSVKGRFTISRDNAKNSVYLQMNSLKAADTAVYYFARVRSRATEVVEYDYWGQGTQVTVSS”, the “polyreactivity (PSR sort gate)” value is given as “high polyreactivity”.
In the case of “QVQLVESGGGLVQAGGSLCLSCAASGIFVYNAMGWYRPAPGKEREFVAAINKSGASTFYADSVKGRFTISRDTAKNTVYLQMNSLKPEDTAVYYCRERDYWGQGTQVTVSS”, the “polyreactivity (PSR sort gate)” value is given as “low polyreactivity”.
To “QVQLVESGGGLVQAGGSLGLSCAASGIIFQANAMGWYRQAPGKERELVAGISRGSSTNYADSVKGRFTISRDNEKNTVYLQMNILKPEDTAVYYCASDRGYGRISRNYYWGQGTQVTVSS” belongs “low polyreactivity”; to “QVQLVESGGGLVQAGGSLGLSCAASGLIFRKYAMGWYRQAPGKERELVATINRSGGSTYYADSVKGRFTISRDNAKNTVYLQMNSLKPEATAVYYCATDRLSYGYKPGYTFYYWEQGTQVTVSS”, “high polyreactivity”; to “QVQLVESGGGLVQAGGSLGLSCAASGYSLGSYAMGWYRQAPGKERELVAAITSSGGSTYYADSVKGRFTSSRDYAKNTDYLQMNSLKPEDTAVYYCAAERGYHGGGSGLYDYWGQGTQVTVSS”, “low polyreactivity”.
The same measure for “QVQLVESGGGLVQAGGSLGLSSAASGRTFGVYAMGWYRQAPGKERELVAGIRWRGGSTYYADSVKGRFTISRDNAKNTVYLQMNSLKPEDTAVYYCAADVYLVKYDYWGQGTQVTVSS”: “low polyreactivity”; for “QVQLVESGGGLVQAGGSLGLSWAASGSIIRYNALGWYRQAPGKERELVAAITKGAGSTYYADSEKGRFTISRDNAKNTVYLHMNSLKPEDTEVYYCNKARGSGHTYYSWGQGTQVTVSS”: “high polyreactivity”.
On to “QVQLVESGGGLVQAGGSLLISCAASGITFDGYAMGWYRHAPGKESELVARITATGFRTYYADSVKGRFTISRDYAKNTVYLKMNSLKPEDTAVYYCPRTTSCVQNVRKYYYWGQGTQVTVSS”, for which the “polyreactivity (PSR sort gate)” value is given as “high polyreactivity”.
With “QVQLVESGGGLVQAGGSLLLSCAASGFTFGSYAMGLYRQAPGKERELVARITRGGNTYYADSVKGRFTISRDNAKNTVYLQMNSLKPVDTAVYYCNAYGRVSPLYQPYGNDAQGYYWGQGTQVTVSS”, the “polyreactivity (PSR sort gate)” value is listed as “high polyreactivity”.
As for “QVQLVESGGGLVQAGGSLLLSCAASGGTFHYNAMGWYIQAPGKERELVAAITESGGRTYYADSVKGRFTISRDNAKNTVYLQMNSLKPEDTAVYYCNADQDSDAADRSAYWGQGSQVTVSS”, the “polyreactivity (PSR sort gate)” value was “low polyreactivity”.
To “QVQLVESGGGLVQAGGSLLLSCAASGLIFYWYAMGWYRQAPGKERELVAAISGGDRTKYADSVKGRFTISRDNAKNTVYLQMISLKPEDSAVYYCATAPYDTSRRYGPYEYWGQRTQVTVSS” belongs “low polyreactivity”.
